This note sets out measurements from patent publication US20180244730A1 (OXFORD UNIVERSITY INNOVATION, published 2018).

B1: SnoopCatcher (designed binder)
chain: MGSSHHHHHHSSGLVPRGSHMKPLRGAVFSLQKQHPDYPDIYGAIDQNGTYQNVRTGEDGKLTFKNLSDGKYRLFENSEPAGYKPVQNKPIVAFQIVNGEVRDVTSIVPQDIPATYEFTNGKHYITNEPIPPK
notes: also called SnoopCatcher fused to a His-Tag
B2: RrgACatcher (designed binder)
chain: KLGDIEFIKVNKNDKKPLRGAVFSLQKQHPDYPDIYGAIDQNGTYQNVRTGEDGKLTFKNLSDGKYRLFENSEPAGYKPVQNKPIVAFQIVNGEVRDVTSIVPQ

Experiment [1] addresses SnoopTag-MBP. In words: mixing, SDS-PAGE with Coomassie staining (covalent isopeptide adduct).
In another experiment the target is T1, SpyCatcher.
T1 construct: also called pDEST14-SpyCatcher (GenBank JQ478411, Addgene plasmid ID 35044)
T1 sequence (chain, as listed by the source): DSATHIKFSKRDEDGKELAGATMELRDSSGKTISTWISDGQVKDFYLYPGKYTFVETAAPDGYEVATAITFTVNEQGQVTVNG
The experiment can be described thus: mixing, SDS-PAGE with Coomassie staining.

The target in experiment [2] is SnoopTag-MBP. The experiment can be described thus: mixing, SDS-PAGE with Coomassie staining.
Experiment [3] addresses B1. The experiment can be described thus: mixing, SDS-PAGE with Coomassie staining.
In experiment [4] the target is B1. In words: electrospray ionization mass spectrometry.

In the case of B1, the binding result with SnoopTag-MBP [1] is recorded as “binds”. On to B2, for which the binding result with SpyCatcher, with SnoopTag-MBP [2] and with SnoopCatcher [3] was “no binding” each time. With KLGDIEFIKVNK [synthetic SnoopTag peptide], the binding result with SnoopCatcher [4] is reported as “binds”.
